The text below walks through data of patent WO2022068891A1 (dated 2022).

Assay [1] addresses T1, Biotinylated PD-1-huIgG1 Fc (Kactus Biosystems) (UniProt Q15116 25-167, limits assumed, biotinylated (site not given)).
T1 construct: the whole entry is named
The assay is described as follows: neutralisation ELISA: PD-L1-huIgG1 Fc coated, antibody titrated against biotinylated PD-1-huIgG1 Fc.

The target of assay [2] is T2, PD-1 Protein, Human, Recombinant (His Tag) (Beijing Yiqiao Shenzhou / Sino Biological) (human, UniProt Q15116 25-167).
T2 construct: Bought reagent; the whole entry is named
As to the kind of experiment: binding ELISA: human PD-1 His tag protein coated at 0.5 ug/ml, antibody in two-fold dilutions from 10 ug/ml.

T1 sequence (Q15116 25-167 limits assumed): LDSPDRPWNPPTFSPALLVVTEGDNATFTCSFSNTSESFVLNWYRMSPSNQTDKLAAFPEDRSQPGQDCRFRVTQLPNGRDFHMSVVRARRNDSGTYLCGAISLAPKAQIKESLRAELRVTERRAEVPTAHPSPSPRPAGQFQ
T2 sequence (Q15116 25-167 limits assumed): as above

B1: 6H6 hIgG1 form antibody (antibody, V domains shown)
VH: EVKLVESGGGLVKPGGSLKLSCAASGFTFSSYGMSWVRQTPEKRLEWVATISGGGRYTYYPDSVKGRFTISRDNAKNNLYLQMSSLRSEDTALYYCASIYDGYYFDYWGHGTTLTVSS
VL: DIVITQSPATLSVTPGDSVSLSCRASQSISNNLHWYQKKSHESPRLLIKYASQSISGIPSRFSGSGSGTDFTLSINSVETEDFGMYFCQQSNSWPLTFGAGTKLELK
notes: also called 6H6 antibody; 6H6 huIgG1 antibody
By IC50 is commonly meant the point on the concentration scale where inhibition reaches its midpoint. The EC50 is the concentration at which the effect is half-maximal. With B1, the midpoint of inhibition in assay [1], the IC50, lay at 3.6 µg/mL. Also, the EC50 in assay [2] came to 0.0172 µg/mL.
